Where a chain is given by its changes, count along the chain named. Each block holds one binder with its values, some of them ahead of it.
What was measured:
[1] = target: T1, Monkey CD3 on cynomolgus HSC-F cells (cynomolgus monkey, UniProt Q95LI5 22-198; Q95LI7 23-181; Q95LI8 22-171); experiment: flow cytometry on HSC-F cells
T1 construct: whole, on cells; also called Monkey CD3-expressing cynomolgus HSC-F cells; cynomolgus monkey CD3-expressing HSC-F cells

[2] = target: T2, Human CD3 on Jurkat cells (human, UniProt P07766 23-207; P09693 23-182; P04234 22-171); experiment: flow cytometry on Jurkat cells
T2 construct: whole, on cells; also called Human CD3-expressing Jurkat cells; Jurkat (naturally expressing human CD3)

[3] = target: T3, Human CD3εγ recombinant antigen (acrobiosystems, Cat. No. CDG-H52W5) (human, UniProt P07766 23-126; P09693 23-116); experiment: SPR chip (Carterra), antibody captured, antigen in flow;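 further: antibodies captured through anti-human IgG Fc at roughly 1000 RU, kinetic constants fitted with a 1:1 binding model in Carterra analysis software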
T3 construct: Bought recombinant protein
Method: Antibodies at three concentrations of 4, 2, and 1 μg/mL were immobilized on the HC200M chip containing anti-human IgG Fc secondary antibody (Xantec, Cat. No.: HC200M), and the antibody binding amount was controlled to approximately 1000RU. […] The kinetic constants were obtained by fitting using the 1:1 binding model of Kinetics software from Carterra.

B2: CD3 monoclonal antibody M21 (antibody, human IgG1, lambda, V domains shown)
VH: EVQLVESGGGLVQPGGSLRLSCAASGFTFNTYAMNWVRQAPGKGLEWVARIRSKYNNYATYYADSVKGRFTISRDDSKSSLYLQMNSLKTEDTAMYYCVRHSNFGNTYVSWFAYWGQGTLVTVSS
VL: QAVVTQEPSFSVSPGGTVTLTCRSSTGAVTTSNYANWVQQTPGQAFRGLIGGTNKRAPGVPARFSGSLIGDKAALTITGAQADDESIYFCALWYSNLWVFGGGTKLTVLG
notes: IgG: VH21 + IgG1 mutant CH, VL-1 + CL
EC50 [1]: 1.23 nM
EC50 [2]: 41.6 nM
Kd [3]: 3.71 nM
koff [3]: 0.00649 s⁻¹
kon [3]: 1.75e+06 M⁻¹ s⁻¹

B3: CD3 monoclonal antibody M14 (antibody, human IgG1, lambda, V domains shown)
VH: B2 VH with G68D, T107S, A113E
VL: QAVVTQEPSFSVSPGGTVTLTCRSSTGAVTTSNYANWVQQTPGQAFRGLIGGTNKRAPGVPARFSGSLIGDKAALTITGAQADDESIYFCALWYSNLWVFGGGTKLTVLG
notes: IgG: VH14 + IgG1 mutant CH, VL-1 + CL
EC50 [1]: 0.271 nM
EC50 [2]: 1.51 nM
Kd [3]: 0.624 nM
koff [3]: 0.00128 s⁻¹
kon [3]: 2.05e+06 M⁻¹ s⁻¹

B5: CD3 monoclonal antibody M13 (antibody, human IgG1, lambda, V domains shown)
VH: B2 VH with M95V, S102G, G105K, T107S, V109G
VL: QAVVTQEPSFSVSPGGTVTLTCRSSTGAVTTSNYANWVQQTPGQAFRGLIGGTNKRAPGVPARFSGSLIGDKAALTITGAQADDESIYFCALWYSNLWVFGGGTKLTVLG
notes: IgG: VH13 + IgG1 mutant CH, VL-1 + CL
EC50 [1]: 0.276 nM
EC50 [2]: 0.832 nM
Kd [3]: 3.33 nM
koff [3]: 0.00045 s⁻¹
kon [3]: 135000 M⁻¹ s⁻¹

B6: CD3 monoclonal antibody M18 (antibody, human IgG1, lambda, V domains shown)
VH: B2 VH with G68D, H101A, S102G, T107S, S110N
VL: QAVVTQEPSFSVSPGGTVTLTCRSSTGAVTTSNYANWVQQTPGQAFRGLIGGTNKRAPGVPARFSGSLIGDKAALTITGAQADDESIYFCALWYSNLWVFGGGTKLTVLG
notes: IgG: VH18 + IgG1 mutant CH, VL-1 + CL
EC50 [1]: 0.841 nM
EC50 [2]: 0.515 nM
Kd [3]: 179 nM

B12: CD3 monoclonal antibody M9 (antibody, human IgG1, lambda, V domains shown)
VH: B2 VH with S80I, S102G, T107S, A113K
VL: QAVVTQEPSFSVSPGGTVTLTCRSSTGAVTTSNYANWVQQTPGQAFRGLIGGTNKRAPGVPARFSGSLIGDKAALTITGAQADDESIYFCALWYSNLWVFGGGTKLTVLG
notes: IgG: VH9 + IgG1 mutant CH, VL-1 + CL
EC50 [1]: 0.237 nM
EC50 [2]: 1.51 nM
Kd [3]: 1.92 nM
koff [3]: 0.0025 s⁻¹
kon [3]: 1.3e+06 M⁻¹ s⁻¹

B13: CD3 monoclonal antibody M35 (antibody, human IgG1, lambda, V domains shown)
VH: B2 VH with G68D, S87N, M95V, T107S, F112W
VL: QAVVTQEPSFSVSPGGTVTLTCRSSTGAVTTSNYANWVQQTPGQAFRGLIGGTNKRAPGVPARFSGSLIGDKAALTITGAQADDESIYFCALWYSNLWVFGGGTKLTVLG
notes: IgG: VH35 + IgG1 mutant CH, VL-1 + CL
EC50 [1]: 0.207 nM
EC50 [2]: 0.792 nM
Kd [3]: 0.842 nM
koff [3]: 0.00283 s⁻¹
kon [3]: 3.36e+06 M⁻¹ s⁻¹

B14: CD3 monoclonal antibody M17 (antibody, human IgG1, lambda, V domains shown)
VH: B2 VH with G68D, S80I, S102G, G105W, T107S, Y114S
VL: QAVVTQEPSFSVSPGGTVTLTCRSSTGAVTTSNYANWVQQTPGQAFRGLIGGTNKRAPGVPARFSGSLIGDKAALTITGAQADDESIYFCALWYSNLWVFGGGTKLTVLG
notes: IgG: VH17 + IgG1 mutant CH, VL-1 + CL
EC50 [1]: 0.21 nM
EC50 [2]: 0.181 nM
Kd [3]: 2.52 nM
koff [3]: 0.00108 s⁻¹
kon [3]: 429000 M⁻¹ s⁻¹

B15: CD3 monoclonal antibody M4 (antibody, human IgG1, lambda, V domains shown)
VH: B2 VH with G68D, S80I, S87N, M95V, S102G, G105Q, T107S, A113Q
VL: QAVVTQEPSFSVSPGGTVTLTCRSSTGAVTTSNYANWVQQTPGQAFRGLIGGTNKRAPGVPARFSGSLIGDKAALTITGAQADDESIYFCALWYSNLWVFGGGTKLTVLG
notes: IgG: VH4 + IgG1 mutant CH, VL-1 + CL
EC50 [1]: 0.434 nM
EC50 [2]: 0.402 nM
Kd [3]: 3.4 nM
koff [3]: 0.00517 s⁻¹
kon [3]: 1.52e+06 M⁻¹ s⁻¹

B19: CD3 monoclonal antibody M2 (antibody, human IgG1, lambda, V domains shown)
VH: B2 VH with H101A, S102K, T107S
VL: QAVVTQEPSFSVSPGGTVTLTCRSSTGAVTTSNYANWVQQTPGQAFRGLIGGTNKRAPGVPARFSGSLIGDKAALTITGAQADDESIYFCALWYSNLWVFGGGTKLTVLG
notes: IgG: VH2 + IgG1 mutant CH, VL-1 + CL
EC50 [1]: 0.225 nM
EC50 [2]: 0.214 nM
Kd [3]: 6.6 nM
koff [3]: 0.00363 s⁻¹
kon [3]: 550000 M⁻¹ s⁻¹

Binders with a lower EC50 [1], results first:

EC50 [1]: 0.186 nM
EC50 [2]: 0.268 nM
Kd [3]: 5.16 nM
koff [3]: 0.0032 s⁻¹
kon [3]: 620000 M⁻¹ s⁻¹
B1: CD3 monoclonal antibody M8 (antibody, human IgG1, lambda, V domains shown)
VH: B2 VH with G68D, S87N, S102G, Y114M
VL: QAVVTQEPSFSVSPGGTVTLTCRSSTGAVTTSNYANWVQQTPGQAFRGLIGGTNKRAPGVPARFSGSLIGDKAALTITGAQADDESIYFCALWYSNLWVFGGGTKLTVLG
notes: IgG: VH8 + IgG1 mutant CH, VL-1 + CL

EC50 [1]: 0.152 nM
EC50 [2]: 0.154 nM
Kd [3]: 5.84 nM
koff [3]: 0.0101 s⁻¹
kon [3]: 1.74e+06 M⁻¹ s⁻¹
B4: CD3 monoclonal antibody M5 (antibody, human IgG1, lambda, V domains shown)
VH: B2 VH with G68D, S80I, M95V, S102G, G105K, T107S
VL: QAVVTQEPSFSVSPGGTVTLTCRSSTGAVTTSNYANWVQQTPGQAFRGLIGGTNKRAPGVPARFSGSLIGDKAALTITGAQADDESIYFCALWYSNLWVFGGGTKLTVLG
notes: IgG: VH5 + IgG1 mutant CH, VL-1 + CL

EC50 [1]: 0.118 nM
EC50 [2]: 0.166 nM
Kd [3]: 160 nM
B7: CD3 monoclonal antibody M15 (antibody, human IgG1, lambda, V domains shown)
VH: B2 VH with G68D, S102G, N103D, F104P, T107S
VL: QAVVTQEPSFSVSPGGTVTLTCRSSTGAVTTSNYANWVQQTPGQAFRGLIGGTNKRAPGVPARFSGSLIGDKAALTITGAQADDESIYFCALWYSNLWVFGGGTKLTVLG
notes: IgG: VH15 + IgG1 mutant CH, VL-1 + CL

EC50 [1]: 0.111 nM
EC50 [2]: 0.0954 nM
Kd [3]: 5.27 nM
koff [3]: 0.0048 s⁻¹
kon [3]: 910000 M⁻¹ s⁻¹
B8: CD3 monoclonal antibody M25 (antibody, human IgG1, lambda, V domains shown)
VH: B2 VH with G68D, S80I, S102G, T107S, Y108R
VL: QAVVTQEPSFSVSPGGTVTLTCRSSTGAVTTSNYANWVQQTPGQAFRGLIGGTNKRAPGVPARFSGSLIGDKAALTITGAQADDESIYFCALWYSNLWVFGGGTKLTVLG
notes: IgG: VH25 + IgG1 mutant CH, VL-1 + CL

EC50 [1]: 0.164 nM
EC50 [2]: 0.186 nM
Kd [3]: 1.57 nM
koff [3]: 0.00549 s⁻¹
kon [3]: 3.5e+06 M⁻¹ s⁻¹
B9: CD3 monoclonal antibody M23 (antibody, human IgG1, lambda, V domains shown)
VH: B2 VH with S80I, G105L, T107S
VL: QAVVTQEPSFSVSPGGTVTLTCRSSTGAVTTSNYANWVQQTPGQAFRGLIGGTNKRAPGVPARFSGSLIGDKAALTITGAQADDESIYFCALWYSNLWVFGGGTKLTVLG
notes: IgG: VH23 + IgG1 mutant CH, VL-1 + CL

EC50 [1]: 0.165 nM
EC50 [2]: 0.403 nM
Kd [3]: 2.44 nM
koff [3]: 0.0028 s⁻¹
kon [3]: 1.15e+06 M⁻¹ s⁻¹
B10: CD3 monoclonal antibody M27 (antibody, human IgG1, lambda, V domains shown)
VH: B2 VH with S80I, S102A, T107S, Y114S
VL: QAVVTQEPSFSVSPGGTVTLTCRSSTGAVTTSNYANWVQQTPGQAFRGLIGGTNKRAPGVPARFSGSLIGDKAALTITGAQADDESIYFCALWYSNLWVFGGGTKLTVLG
notes: IgG: VH27 + IgG1 mutant CH, VL-1 + CL

EC50 [1]: 0.162 nM
EC50 [2]: 0.477 nM
Kd [3]: 2.02 nM
koff [3]: 0.00188 s⁻¹
kon [3]: 929000 M⁻¹ s⁻¹
B11: CD3 monoclonal antibody M16 (antibody, human IgG1, lambda, V domains shown)
VH: B2 VH with S80I, M95V, S102G, T107S, A113Q
VL: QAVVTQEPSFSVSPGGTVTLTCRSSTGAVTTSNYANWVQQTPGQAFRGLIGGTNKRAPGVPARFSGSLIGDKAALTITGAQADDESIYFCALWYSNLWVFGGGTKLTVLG
notes: IgG: VH16 + IgG1 mutant CH, VL-1 + CL

EC50 [1]: 0.0667 nM
EC50 [2]: 0.188 nM
Kd [3]: 4.37 nM
koff [3]: 0.0133 s⁻¹
kon [3]: 3.05e+06 M⁻¹ s⁻¹
B16: CD3 monoclonal antibody M32 (antibody, human IgG1, lambda, V domains shown)
VH: B2 VH with M95V, T107S, Y108R
VL: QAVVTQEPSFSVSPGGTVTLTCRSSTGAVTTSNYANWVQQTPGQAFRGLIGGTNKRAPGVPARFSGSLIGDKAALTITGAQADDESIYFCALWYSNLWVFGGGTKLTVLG
notes: IgG: VH32 + IgG1 mutant CH, VL-1 + CL

EC50 [1]: 0.12 nM
EC50 [2]: 1.32 nM
Kd [3]: 1.06 nM
koff [3]: 0.00358 s⁻¹
kon [3]: 3.38e+06 M⁻¹ s⁻¹
B17: CD3 monoclonal antibody M24 (antibody, human IgG1, lambda, V domains shown)
VH: B2 VH with S80I, M95V, N106R, T107S
VL: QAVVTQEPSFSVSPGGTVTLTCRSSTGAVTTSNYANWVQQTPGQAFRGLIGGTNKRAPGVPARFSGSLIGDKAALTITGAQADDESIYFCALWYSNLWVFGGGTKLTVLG
notes: IgG: VH24 + IgG1 mutant CH, VL-1 + CL

EC50 [1]: 0.169 nM
EC50 [2]: 0.13 nM
Kd [3]: 2.95 nM
koff [3]: 0.00677 s⁻¹
kon [3]: 2.3e+06 M⁻¹ s⁻¹
B18: CD3 monoclonal antibody M11 (antibody, human IgG1, lambda, V domains shown)
VH: B2 VH with G68D, M95V, G105V, T107S
VL: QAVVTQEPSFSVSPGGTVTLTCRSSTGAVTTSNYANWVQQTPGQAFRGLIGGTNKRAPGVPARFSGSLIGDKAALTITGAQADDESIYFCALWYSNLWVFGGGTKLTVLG
notes: IgG: VH11 + IgG1 mutant CH, VL-1 + CL
